Data taken from publication PMC9609871 (2022).

Molecular target: PP2A catalytic subunit alpha (Homo sapiens, UniProt P67775)
Assay: biolayer interferometry (PP2A immobilized)

PP2A catalytic subunit alpha, sequence (P67775 whole entry): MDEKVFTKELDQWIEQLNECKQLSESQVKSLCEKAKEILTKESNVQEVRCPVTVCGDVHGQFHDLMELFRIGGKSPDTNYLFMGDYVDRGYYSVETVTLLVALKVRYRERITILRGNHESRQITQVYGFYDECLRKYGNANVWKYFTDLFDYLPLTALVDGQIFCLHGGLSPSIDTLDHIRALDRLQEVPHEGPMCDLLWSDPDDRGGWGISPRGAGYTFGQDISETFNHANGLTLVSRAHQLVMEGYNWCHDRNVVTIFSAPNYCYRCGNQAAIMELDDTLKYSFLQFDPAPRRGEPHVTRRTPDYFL

B1: Caspase 9 (protein)
chain: DEADRRLLRRCRLRLVEELQVDQLWDALLSRELFRPHMIEDIQRAGSGSRRDQARQLIIDLETRGSQALPLFISCLEDTGQDMLASFLRTNRQAAKLSKPTLENLTPVVLRPEIRKPEVLRPETPRPVDIGSGGFGDVGALESLRGNADLAYILSMEPCGHCLIINNVNFCRESGLRTRTGSNIDCEKLRRRFSSLHFMVEVKGDLTAKKMVLALLELAQQDHGALDCCVVVILSHGCQASHLQFPGAVYGTDGCPVSVEKIVNIFNGTSCPSLGGKPKLFFIQACGGEQKDHGFEVASTSPEDESPGSNPEPDATPFQEGLRTFDQLDAISSLPTPSDIFVSYSTFPGFVSWRDPKSGSWYVETLDDIFEQWAHSEDLQSLLLRVANAVSVKGIYKQMPGCFNFLRKKLFFKTS
Kd: 228 nM
